The EC50 is the concentration needed to bring the measured effect to its halfway point. For orientation: Kd means the constant that tells how readily two partners part at equilibrium.

Changes are numbered by the printed parent chain.

The source of these data is patent US20250018038A1 (UNIVERSITY OF CHICAGO, published 2025).

To fix the notation:
T1: Bor-N (Biotinylated Avi tag, held on neutravidin; not in the letters)
T1 construct: also called Bor N: 20-88; Borealin N-terminal domain; not shown: Avi tag, and any purification tag or linker
T1 chain: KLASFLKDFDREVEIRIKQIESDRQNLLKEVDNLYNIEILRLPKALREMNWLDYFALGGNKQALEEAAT

B1: SUR-N-53 (Fab, V domains shown)
VH: EVQLVESGGGLVQPGGSLRLSCAASGFNVSSSYIHWVRQAPGKGLEWVASIYSYYGSTSYADSVKGRFTISADTSKNTAYLQMNSLRAEDTAVYYCARSFTEKWAYSWAIDYWGQGTLVTVSS
VL: DIQMTQSPSSLSASVGDRVTITCRASQSVSSAVAWYQQKPGKAPKLLIYSASSLYSGVPSRFSGSRSGTDFTLTISSLQPEDFATYYCQQYAWSLFTFGQGTKVEIKR
notes: also called SUR-N-53 Fab
B2: SUR-FL-47 (Fab, V domains shown)
VH: EVQLVESGGGLVQPGGSLRLSCAASGFNVSYSSIHWVRQAPGKGLEWVASIYSYYGYTSYADSVKGRFTISADTSKNTAYLQMNSLRAEDTAVYYCARWPHYWGQGVSSMDYWGQGTLVTVSS
VL: B1 VL with Y91S, A92Y, W93Y, S94F, L95P, F96V
notes: also called SUR-FL-47 Fab
B3: SUR-FL-25 (Fab, V domains shown)
VH: EVQLVESGGGLVQPGGSLRLSCAASGFNVYSSSIHWVRQAPGKGLEWVASIYPYYSYTSYADSVKGRFTISADTSKNTAYLQMNSLRAEDTAVYYCARWKKSRSGGMWGMDYWGQGTLVTVSS
VL: B1 VL with A92S, W93S, S94F, L95P, F96I
notes: also called SUR-FL-25 Fab
B4: SUR-FL-24 (Fab, V domains shown)
VH: EVQLVESGGGLVQPGGSLRLSCAASGFNFYSSSIHWVRQAPGKGLEWVASIYPYYSSTSYADSVKGRFTISADTSKNTAYLQMNSLRAEDTAVYYCARWYHYYSVQQYGLDYWGQGTLVTVSS
VL: B1 VL with Y91S, A92T, W93S, S94F, L95P, F96I
notes: also called SUR-FL-24 Fab
B5: SUR-N-40 Fab (Fab, V domains shown)
VH: EVQLVESGGGLVQPGGSLRLSCAASGFNFSSSSIHWVRQAPGKGLEWVAYIYPSYGYTSYADSVKGRFTISADTSKNTAYLQMNSLRAEDTAVYYCARSLYSKMWYYGSYYFYQVGLDYWGQGTLVTVSS
VL: B1 VL with Y91G, A92Y, W93K, S94Y, F96V
B6: SUR-FL-23 (Fab, V domains shown)
VH: EVQLVESGGGLVQPGGSLRLSCAASGFNFSSSSIHWVRQAPGKGLEWVASISSYSSSTSYADSVKGRFTISADTSKNTAYLQMNSLRAEDTAVYYCARYMVSMWSYSWYVKWYAMDYWGQGTLVTVSS
VL: B1 VL with Y91S, A92S, W93S, F96I
notes: also called SUR-FL-23 Fab
B7: SUR-N-28 (Fab, V domains shown)
VH: EVQLVESGGGLVQPGGSLRLSCAASGFNFSSSYIHWVRQAPGKGLEWVASIYSSYGYTSYADSVKGRFTISADTSKNTAYLQMNSLRAEDTAVYYCARSYYYQYSGGWRGYYHALDYWGQGTLVTVSS
VL: B1 VL with Y91S, A92S, W93S, F96I
notes: also called SUR-N-28 Fab
B8: SUR-FL-26 (Fab, V domains shown)
VH: EVQLVESGGGLVQPGGSLRLSCAASGFNVSYSSIHWVRQAPGKGLEWVASISPYYGYTYYADSVKGRFTISADTSKNTAYLQMNSLRAEDTAVYYCARWYFEYPYYMWGLDYWGQGTLVTVSS
VL: B1 VL with Y91S, A92Y, W93K, S94P, L95P, F96I
notes: also called SUR-FL-26 Fab
B9: SUR-FL-31 (Fab, V domains shown)
VH: EVQLVESGGGLVQPGGSLRLSCAASGFNFSSSSIHWVRQAPGKGLEWVASISSYSGYTYYADSVKGRFTISADTSKNTAYLQMNSLRAEDTAVYYCARGKQKSYGQWYFYYWAIDYWGQGTLVTVSS
VL: B1 VL with Y91S, A92S, W93S, F96I
notes: also called SUR-FL-31 Fab
B10: SUR-N-36 Fab (Fab, V domains shown)
VH: EVQLVESGGGLVQPGGSLRLSCAASGFNVSYSSIHWVRQAPGKGLEWVASIYPYYGYTSYADSVKGRFTISADTSKNTAYLQMNSLRAEDTAVYYCAREEYSTVQYWYYYWYPGMDYWGQGTLVTVSS
VL: B1 VL with A92M, W93Y, L95P, F96I
B11: SUR-N-09 (Fab, V domains shown)
VH: EVQLVESGGGLVQPGGSLRLSCAASGFNFYYSSIHWVRQAPGKGLEWVASISPYSGYTSYADSVKGRFTISADTSKNTAYLQMNSLRAEDTAVYYCARYMYYGWALDYWGQGTLVTVSS
VL: DIQMTQSPSSLSASVGDRVTITCRASQSVSSAVAWYQQKPGKAPKLLIYSASSLYSGVPSRFSGSRSGTDFTLTISSLQPEDFATYYCQQGQWWGLITFGQGTKVEIKR
notes: also called SUR-N-09 Fab
B12: SUR-N-37 (Fab, V domains shown)
VH: EVQLVESGGGLVQPGGSLRLSCAASGFNVSYSSIHWVRQAPGKGLEWVASISSYYGSTSYADSVKGRFTISADTSKNTAYLQMNSLRAEDTAVYYCARSTYYSWYPYYYAMWHQHGMDYWGQGTLVTVSS
VL: B11 VL with G91S, Q92P, W93M, W94Y, G95S
notes: also called SUR-N-37 Fab
B13: SUR-FL-22 (Fab, V domains shown)
VH: EVQLVESGGGLVQPGGSLRLSCAASGFNFYSSYIHWVRQAPGKGLEWVASIYSYSSSTSYADSVKGRFTISADTSKNTAYLQMNSLRAEDTAVYYCARAGWYWYYGIQFAFDYWGQGTLVTVSS
VL: B11 VL with G91Q, Q92R, W93Y, W94G, G95S
notes: also called SUR-FL-22 Fab
B14: SUR-FL-29 Fab (Fab, V domains shown)
VH: EVQLVESGGGLVQPGGSLRLSCAASGFNVSYYSIHWVRQAPGKGLEWVASIYPYYGSTSYADSVKGRFTISADTSKNTAYLQMNSLRAEDTAVYYCARWQFYGYYHGLYFTDLGIDYWGQGTLVTVSS
VL: B1 VL with Y91S, A92G, W93G, S94F, L95P, F96I
B15: SUR-FL-52 (Fab, V domains shown)
VH: EVQLVESGGGLVQPGGSLRLSCAASGFNFSSSSIHWVRQAPGKGLEWVASIYPYSGSTYYADSVKGRFTISADTSKNTAYLQMNSLRAEDTAVYYCARWDFGYYYWYSAIDYWGQGTLVTVSS
VL: B1 VL with A92W, W93Y, S94T, F96I
notes: also called SUR-FL-52 Fab
B16: SUR-N-07 (Fab, V domains shown)
VH: B15 VH with Y52S, S57Y, D100Y, F101W, G102A, Y104P, Y107W, S108Y, I110M
VL: B1 VL with Y91S, A92W, W93G, S94P, L95P, F96V
notes: also called SUR-N-07 Fab
B17: SUR-FL-27 (Fab, V domains shown)
VH: EVQLVESGGGLVQPGGSLRLSCAASGFNVYSSYIHWVRQAPGKGLEWVASIYPSSGYTYYADSVKGRFTISADTSKNTAYLQMNSLRAEDTAVYYCARMSYYSWYYHSVYMYGLDYWGQGTLVTVSS
VL: DIQMTQSPSSLSASVGDRVTITCRASQSVSSAVAWYQQKPGKAPKLLIYSASSLYSGVPSRFSGSRSGTDFTLTISSLQPEDFATYYCQQASSDHSLITFGQGTKVEIKR
notes: also called SUR-FL-27 Fab

T2 sequence (O15392 1-140 limits assumed): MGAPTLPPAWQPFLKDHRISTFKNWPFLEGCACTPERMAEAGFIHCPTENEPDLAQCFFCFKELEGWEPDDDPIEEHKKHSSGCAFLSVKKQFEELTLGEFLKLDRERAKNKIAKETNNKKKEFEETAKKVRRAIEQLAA

One assay concerns the target T2, Survivin (purified recombinant Survivin protein) (human, UniProt O15392 1-140, limits assumed, biotinylated on the Avi-tag by BirA (antigens for selection and ELISA)).
T2 construct: also called Baculoviral IAP repeat-containing protein 5; BIRC5
The experiment in a line: multipoint protein ELISA: 50 nM immobilised target, 3-fold serial dilutions of purified Fab, protein L-HRP, sigmoidal fit. As to the method: Protein based multipoint ELISA was performed to estimate the affinity of the generated unique Fabs to their cognate antigens. A fixed concentration of the immobilized target (50 nM) on ELISA plate was incubated with 3-fold serial dilutions of the purified Fabs starting from […] for 15 min. The plates were washed and the bound antigen-Fab complexes were incubated with H1RP-conjugated protein L (1:5000 dilution in PBST). As with phage ELISA, the plates were again washed, developed with TMB substrate and quenched with 1.0 M HCl, and absorbance (A450) was determined. To determine the affinity, the data were fitted in a non-linear sigmoidal function with variable slope in GraphPad PRISM and EC50 value was calculated (FIG. 2).
(An ELISA detects its analyte on a solid surface through an enzyme-linked reagent.)
B1: the EC50 amounted to 100 nM.

Consider B2, for which the half-maximal effective concentration (EC50) was 29 nM.

Turning to B3, the EC50 stood at 10 nM.

B4: the EC50 was 18 nM.

Consider B5, for which the half-maximal effective concentration (EC50) was less than 1 nM.

Take B6: the half-maximal effective concentration (EC50) came to 1 nM.

In the case of B7, the EC50 was determined as 3 nM.

Take B8: the EC50 was less than 1 nM.

On to B9, for which the EC50 was 2 nM.

With B10, the EC50 was 2 nM.

As to B11, the half-maximal effective concentration (EC50) is 30 nM.

As to B12, the concentration giving a half-maximal response (EC50) stood at 1 nM.

In the case of B13, the concentration for a half-maximal effect (EC50) was found to be 3 nM.

For another assay, the target named is T3, Survivin of murine tumor cells (CT-26, MC-38) (mouse, UniProt O70201).
T3 construct: also called murine survivin
T3 sequence (O70201 whole entry): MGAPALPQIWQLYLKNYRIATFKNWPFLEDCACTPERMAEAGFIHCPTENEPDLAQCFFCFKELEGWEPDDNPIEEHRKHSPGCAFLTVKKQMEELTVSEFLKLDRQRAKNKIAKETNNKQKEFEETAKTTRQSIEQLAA
The experiment in a line: flow cytometry of live murine colon tumor cells, 200 nM Fab, anti-human F(ab')2-A647 secondary. The procedure: (§1) Human or murine tumor cells were trypsinized, washed and resuspended in Flow buffer (1×PBS supplemented with 2% FBS) and added to a 96-well plate (#3799, Costar). 200 nM primary CPC Fab was mixed with 0.5M cells and incubated at 37 C for 20 min. […] Samples were analyzed by flow cytometry using CytoFLEX (Beckman Coulter) and mean fluorescence intensity (MFI) data was extracted using the FlowJo software (FIG. 5A-E, FIG. 6). Human peripheral blood mononuclear cells (PBMCs) derived from a single patient were used as a source of healthy human cells. PBMCs were counted, split and spun down 400×g 5 min. Cells were resuspended in Flow buffer (1×PBS supplemented with 2% FBS) and pre-incubated with TruStain FcX (1:20, Biolegend 422302) for 10 min at 37 C, followed by 200 nM primary Fab incubation at 37 for 20 min. […] Mean fluorescence intensity (MFI) data was extracted using the FlowJo software (FIG. 5F).
On the technique in general: Flow cytometry measures light scatter and fluorescence of single cells or particles in a stream.
For the molecule B14, the binding result was “binds”.

In the case of B5, the binding result is recorded as “binds”.

In the case of B10, the binding result is reported as “binds”.

The next assay deals with T4, cell surface survivin on cancer cells (human, UniProt O15392 1-142).
T4 construct: whole, on cells
T4 sequence (O15392 whole entry): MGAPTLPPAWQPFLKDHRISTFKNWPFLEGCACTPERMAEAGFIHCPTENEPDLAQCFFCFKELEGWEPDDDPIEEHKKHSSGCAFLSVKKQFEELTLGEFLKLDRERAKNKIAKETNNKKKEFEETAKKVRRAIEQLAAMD
The experiment in a line: flow cytometry of live cells, 200 nM Fab, anti-human F(ab')2-A647 secondary. The procedure:
as §1
For the molecule B14, the binding result is on record as “binds”.

Consider B15, for which the binding result is given as “binds”.

Take B16: the binding result was “binds”.

With B17, the binding result is recorded as “binds”.

Another assay concerns the target T1, Bor-N. The assay is described as follows: single point protein ELISA, 50 nM immobilised target. As to the method: To rapidly reconfirm the binding and specificity of the obtained Fabs after reformatting into the expression vectors single-point Fab ELISA was performed (FIG. 2-3). Briefly, 50 nM Avi-tagged targets were immobilized on the prepared NAV-coated and blocked with 0.5% BSA in PBS 96-well ELISA plates. The target coated plates were washed with appropriate buffer (TBST or PBST) and were incubated with 200 nM Fab for 20 minutes and then washed. The washed plates were incubated with protein L conjugated with HRP (1:5000 diluted in TBST) for 30 minutes. Plates were washed and the reaction was developed using the TMB chromogenic substrate (Thermofisher) and subsequently quenched with 1M HCl. Absorbance was read at 450 nm on Epoch plate reader.
Take B12: the binding result is on record as “no binding (tested: 200 nM)”.

The target in the next assay is T2, Survivin (purified recombinant Survivin …). The experiment in a line: SPR: target immobilised on NTA chip by His-tag, 2-fold serial dilutions of Fab, 1:1 Langmuir fit. As to the method: The targets were immobilized onto a nitrilotriacetic acid (NTA) sensor chip via His-tag. 2-fold serial dilutions of the Fab were injected following ligand immobilization on the sensor chip. For each kinetic assay at least five dilutions of the Fab were tested. The data were fitted using 1:1 Langmuir Model to obtain the on-rate, off-rate and the affinity (KD) of the Fab-target interaction. (FIG. 4).
As for B5, the dissociation constant Kd turned out to be 2.1 nM.

As to B10, the Kd was 4.2 nM.
